Reference: publication PMC5398727, “GP73 represses host innate immune response to promote virus replication by facilitating MAVS and TRAF6 degradation” (PLoS Pathogens, 2017)

Target: T1, GST-GP73 (aa36-401) (human, UniProt Q8NBJ4 36-401)
T1 construct: also called recombinant GST-GP73; GST-fused GP73; source: E. coli BL21, purified (glutathione Sepharose 4B)
T1 sequence (looked up): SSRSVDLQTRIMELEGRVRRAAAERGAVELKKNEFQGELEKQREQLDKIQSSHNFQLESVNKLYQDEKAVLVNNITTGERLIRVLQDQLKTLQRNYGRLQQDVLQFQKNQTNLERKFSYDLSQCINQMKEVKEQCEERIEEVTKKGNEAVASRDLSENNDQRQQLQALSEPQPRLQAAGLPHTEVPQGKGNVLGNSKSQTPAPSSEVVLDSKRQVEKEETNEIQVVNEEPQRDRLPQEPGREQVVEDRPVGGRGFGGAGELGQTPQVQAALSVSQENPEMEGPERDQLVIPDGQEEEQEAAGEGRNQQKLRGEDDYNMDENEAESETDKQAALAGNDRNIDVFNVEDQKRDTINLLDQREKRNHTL
Experiment: pull-down; purified MBP, MBP-M11 or MBP-T6CC (20 μg) with 10 μg GST or 20 μg GST-GP73 overnight at 4°C; WB (S4A Fig)
Conditions: both partners purified

B1: MBP-M11 (domain or fragment, UniProt Q7Z434 1-90, looked up)
chain: MPFAEDKTYKYICRNFSNFCNVDVVEILPYLPCLTARDQDRLRATCTLSGNRDTLWHLFNTLQRRPGWVEYFIAALRGCELVDLADEVASISASTSLGMGPCHGPEENEYKSEGTFGIHVAENPSIQLLEGNPGPPADPDGGPRPQADRKFQEREVPCHRPSPGALWLQVAVTGVLVVTLLVVLYRRRLH
notes: also called MBP-fused M11; source: E. coli BL21, purified (amylose resin)
B1: binds.
